# Assays:
# [1] = target: CrCFAP410-CTD mutant A219E (C. reinhardtii); experiment: SEC-MALS; static light scattering coupled to SEC; 50 μl at 2 mg/ml on Superdex S-200 10/300 GL; 20 mM HEPES pH 7.5, 100 mM NaCl, 1 mM DTT, 1% glycerol; Mini-DAWN Treos
# [2] = target: CrCFAP410-CTD, C-terminal domain of Chlamydomonas reinhardtii CFAP410, wild type (C. reinhardtii); experiment: as above
# [3] = target: CrCFAP410-CTD, C-terminal domain of Chlamydomonas reinhardtii CFAP410, wild type (C. reinhardtii); experiment: crystal structure; synthetic CTD polypeptides; TbCFAP410-CTD in 2.0 M (NH4)2SO4, 5% iso-propanol, 4°C; HsCFAP410-CTD in 1.5 M NaCl, 10% ethanol, 22°C; CrCFAP410-CTD in 0.02 M CaCl2, 0.1 M sodium acetate pH 5.0, 30% MPD, 4°C
# [4] = target: CrCFAP410-CTD mutant A219E; experiment: static light scattering (SLS); conditions: parent: 15.62
# [5] = target: CrCFAP410-CTD mutant L224P; experiment: static light scattering (SLS); conditions: parent: 15.62
# [6] = target: HsCFAP410-CTD, C-terminal domain of Homo sapiens cilia- and flagella-associated protein 410, wild type (human) (UniProt O43822); experiment: crystal structure; synthetic CTD polypeptides; TbCFAP410-CTD in 2.0 M (NH4)2SO4, 5% iso-propanol, 4°C; HsCFAP410-CTD in 1.5 M NaCl, 10% ethanol, 22°C; CrCFAP410-CTD in 0.02 M CaCl2, 0.1 M sodium acetate pH 5.0, 30% MPD, 4°C
# [7] = target: TbCFAP410-CTD, C-terminal domain of Trypanosoma brucei CFAP410, wild type (T. brucei); experiment: as above
substance,measurement,setting,value
CrCFAP410-CTD mutant A219E (domain or fragment),stoichiometry N,[1],2
"CrCFAP410-CTD, C-terminal domain of Chlamydomonas reinhardtii CFAP410, wild type (domain or fragment)",stoichiometry N,[2],4
same,stoichiometry N,[3],4
"CrCFAP410-CTD, C-terminal domain of Chlamydomonas reinhardtii CFAP410, wild type A219E",other: molecular weight (SLS),[4],8.35 kDa
"CrCFAP410-CTD, C-terminal domain of Chlamydomonas reinhardtii CFAP410, wild type L224P",other: molecular weight (SLS),[5],4.16 kDa
"HsCFAP410-CTD, C-terminal domain of Homo sapiens cilia- and flagella-associated protein 410, wild type (from UniProt O43822 212-246) (domain or fragment)",stoichiometry N,[6],4
"TbCFAP410-CTD, C-terminal domain of Trypanosoma brucei CFAP410, wild type (domain or fragment)",stoichiometry N,[7],4

# Reference: paper PMC11500688
